# According to IntAct's records for PubMed 31515488:
# B1: Homeobox protein VENTX (Homo sapiens), O95231 (parent)
# chain: MRLSSSPPRGPQQLSSFGSVDWLSQSSCSGPTHTPRPADFSLGSLPGPGQTSGAREPPQAVSIKEAAGSSNLPAPERTMAGLSKEPNTLRAPRVRTAFTMEQVRTLEGVFQHHQYLSPLERKRLAREMQLSEVQIKTWFQNRRMKHKRQMQDPQLHSPFSGSLHAPPAFYSTSSGLANGLQLLCPWAPLSGPQALMLPPGSFWGLCQVAQEALASAGASCCGQPLASHPPTPGRPSLGPALSTGPRGLCAMPQTGDAF
# partner: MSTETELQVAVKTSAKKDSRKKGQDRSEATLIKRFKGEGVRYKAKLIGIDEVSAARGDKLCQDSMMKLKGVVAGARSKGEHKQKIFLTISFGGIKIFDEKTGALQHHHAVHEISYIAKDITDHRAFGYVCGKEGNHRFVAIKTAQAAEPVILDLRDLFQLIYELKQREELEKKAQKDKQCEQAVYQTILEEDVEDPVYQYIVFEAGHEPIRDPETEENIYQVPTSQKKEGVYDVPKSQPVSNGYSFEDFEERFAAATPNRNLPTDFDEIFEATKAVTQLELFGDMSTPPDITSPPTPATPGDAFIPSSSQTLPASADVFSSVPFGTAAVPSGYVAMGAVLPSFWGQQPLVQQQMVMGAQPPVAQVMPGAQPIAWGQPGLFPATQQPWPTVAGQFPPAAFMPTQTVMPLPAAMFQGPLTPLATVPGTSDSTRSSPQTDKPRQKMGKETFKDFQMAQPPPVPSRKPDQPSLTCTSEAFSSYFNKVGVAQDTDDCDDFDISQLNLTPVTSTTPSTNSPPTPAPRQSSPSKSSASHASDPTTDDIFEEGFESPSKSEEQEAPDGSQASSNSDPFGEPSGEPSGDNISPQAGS
# B2: Coiled-coil domain-containing protein 33 (Homo sapiens), Q8N5R6-5 (parent)
# chain: MGEPGPPSPPAPKAAPGLIDSFSEMNNYRRAMQKMAEDILSLRRQASILEGENRILRSRLAQQEEEEGQGKASEAQNTVSMKQKLLLSELDMKKLRDRVQHLQNELIRKNDREKELLLLYQAQQPQAALLKQYQGKLQKMKALEETVRHQEKVIEKMERVLEDRLQDRSKPPPLNRQQGKPYTGFPMLSASGLPLGSMGENLPVELYSVLLAENAKLRTELDKNRHQQAPIILQQQALPVDPGELGAGGDLTERLQETHGPGHSECTETLPAQDLLSGTSDKFNLLAKLEHAQSRILSLESQLEDSARRWGREKQDLATRLQEQEKGFRHPSNSIIIEQPVSDPPGVAPRGSGGGAGSHRTPKVTGP
# partner: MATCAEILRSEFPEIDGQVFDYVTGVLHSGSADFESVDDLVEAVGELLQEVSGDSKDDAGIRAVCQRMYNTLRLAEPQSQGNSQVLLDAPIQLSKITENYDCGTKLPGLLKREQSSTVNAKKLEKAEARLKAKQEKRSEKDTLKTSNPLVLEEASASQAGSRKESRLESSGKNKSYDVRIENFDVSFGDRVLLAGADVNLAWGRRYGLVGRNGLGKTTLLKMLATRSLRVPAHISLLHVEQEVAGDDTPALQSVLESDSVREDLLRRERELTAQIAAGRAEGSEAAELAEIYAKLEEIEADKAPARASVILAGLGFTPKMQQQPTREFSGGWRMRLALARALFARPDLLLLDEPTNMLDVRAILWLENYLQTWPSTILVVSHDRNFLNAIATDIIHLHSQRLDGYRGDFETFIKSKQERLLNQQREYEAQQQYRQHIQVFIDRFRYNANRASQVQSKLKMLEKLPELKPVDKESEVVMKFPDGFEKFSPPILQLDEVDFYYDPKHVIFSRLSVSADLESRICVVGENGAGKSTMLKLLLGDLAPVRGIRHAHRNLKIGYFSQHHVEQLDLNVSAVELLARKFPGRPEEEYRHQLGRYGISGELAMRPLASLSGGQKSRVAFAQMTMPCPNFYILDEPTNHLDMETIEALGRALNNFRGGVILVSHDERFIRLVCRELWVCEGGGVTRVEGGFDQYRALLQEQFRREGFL
# B3: Protein BANP (Homo sapiens), Q8N9N5 (parent)
# chain: MMSEHDLADVVQIAVEDLSPDHPVVLENHVVTDEDEPALKRQRLEINCQDPSIKTICLRLDSIEAKLQALEATCKSLEEKLDLVTNKQHSPIQVPMVAGSPLGATQTCNKVRCVVPQTTVILNNDRQNAIVAKMEDPLSNRAPDSLENVISNAVPGRRQNTIVVKVPGQEDSHHEDGESGSEASDSVSSCGQAGSQSIGSNVTLITLNSEEDYPNGTWLGDENNPEMRVRCAIIPSDMLHISTNCRTAEKMALTLLDYLFHREVQAVSNLSGQGKHGKKQLDPLTIYGIRCHLFYKFGITESDWYRIKQSIDSKCRTAWRRKQRGQSLAVKSFSRRTPNSSSYCPSEPMMSTPPPASELPQPQPQPQALHYALANAQQVQIHQIGEDGQVQVGHLHIAQVPQGEQVQITQDSEGNLQIHHVGQDGQLLEATRIPCLLAPSVFKASSGQVLQGAQLIAVASSDPAAAGVDGSPLQGSDIQVQYVQLAPVSDHTAGAQTAEALQPTLQPEMQLEHGAIQIQ
# partner: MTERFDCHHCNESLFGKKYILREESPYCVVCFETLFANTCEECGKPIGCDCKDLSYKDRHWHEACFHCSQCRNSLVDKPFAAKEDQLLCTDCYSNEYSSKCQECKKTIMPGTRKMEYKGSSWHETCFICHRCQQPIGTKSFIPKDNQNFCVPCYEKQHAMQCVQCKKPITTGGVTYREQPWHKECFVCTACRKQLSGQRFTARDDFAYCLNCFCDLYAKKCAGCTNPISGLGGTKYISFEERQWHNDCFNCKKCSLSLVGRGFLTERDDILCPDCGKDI
# B4: Katanin p60 ATPase-containing subunit A-like 1 (Homo sapiens), Q9BW62 (parent)
# chain: MNLAEICDNAKKGREYALLGNYDSSMVYYQGVMQQIQRHCQSVRDPAIKGKWQQVRQELLEEYEQVKSIVSTLESFKIDKPPDFPVSCQDEPFRDPAVWPPPVPAEHRAPPQIRRPNREVRPLRKEMAGVGARGPVGRAHPISKSEKPSTSRDKDYRARGRDDKGRKNMQDGASDGEMPKFDGAGYDKDLVEALERDIVSRNPSIHWDDIADLEEAKKLLREAVVLPMWMPDFFKGIRRPWKGVLMVGPPGTGKTMLAKAVATECGTTFFNVSSSTLTSKYRGESEKLVRLLFEMARFYAPTTIFIDEIDSICSRRGTSDEHEASRRVKSELLIQMDGVGGALENDDPSKMVMVLAATNFPWDIDEALRRRLEKRIYIPLPTAKGRAELLKINLREVELDPDIQLEDIAEKIEGYSGADITNVCRDASLMAMRRRINGLSPEEIRALSKEELQMPVTKGDFELALKKIAKSVSAADLEKYEKWMVEFGSA
# partner: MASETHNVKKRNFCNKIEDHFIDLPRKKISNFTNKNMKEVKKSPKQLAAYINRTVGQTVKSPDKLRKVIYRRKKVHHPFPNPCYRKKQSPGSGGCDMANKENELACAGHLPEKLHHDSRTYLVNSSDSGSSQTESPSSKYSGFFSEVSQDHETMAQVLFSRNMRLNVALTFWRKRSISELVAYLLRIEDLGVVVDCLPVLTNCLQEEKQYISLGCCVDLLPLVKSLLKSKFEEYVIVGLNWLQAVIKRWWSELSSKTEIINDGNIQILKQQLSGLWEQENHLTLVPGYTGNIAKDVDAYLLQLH
# B5: Syntenin-1 (Homo sapiens), O00560 (parent)
# chain: MSLYPSLEDLKVDKVIQAQTAFSANPANPAILSEASAPIPHDGNLYPRLYPELSQYMGLSLNEEEIRANVAVVSGAPLQGQLVARPSSINYMVAPVTGNDVGIRRAEIKQGIREVILCKDQDGKIGLRLKSIDNGIFVQLVQANSPASLVGLRFGDQVLQINGENCAGWSSDKAHKVLKQAFGEKITMTIRDRPFERTITMHKDSTGHVGFIFKNGKITSIVKDSSAARNGLLTEHNICEINGQNVIGLKDSQIADILSTSGTVVTITIMPAFIFEHIIKRMAPSIMKSLMDHTIPEV
# Variants of: B1
# Conditions: with dab1_human DAB1, O75553
row,Variant,effect of a mutation on the interaction
1,L42P,with no effect

# Variants of: B2
# Conditions: with abcf3_human ABCF3, Q9NUQ8
row,Variant,effect of a mutation on the interaction
1,P203L,with no effect
2,M25V,with no effect
3,G196R,with no effect
4,R30L,with no effect

# Variants of: B3
# Conditions: with fhl2_human FHL2, Q14192
row,Variant,effect of a mutation on the interaction
1,P348S,with no effect

# Variants of: B4
# Conditions: with ktbl1_human KATNBL1, Q9H079
row,Variant,effect of a mutation on the interaction
1,A300S,with no effect
2,V272I,with no effect

# Continued, values first:
row,effect of a mutation on the interaction,Variant
1,with no effect,C424S
2,with no effect,I142M

# Variants of: B5
# Conditions: with cryaa_human CRYAA
row,Variant,effect of a mutation on the interaction
1,K124R,with no effect

# Variants of: B5
# Conditions: with cox41_human COX4I1, P13073
# cox41_human COX4I1, P13073, sequence (P13073 whole entry): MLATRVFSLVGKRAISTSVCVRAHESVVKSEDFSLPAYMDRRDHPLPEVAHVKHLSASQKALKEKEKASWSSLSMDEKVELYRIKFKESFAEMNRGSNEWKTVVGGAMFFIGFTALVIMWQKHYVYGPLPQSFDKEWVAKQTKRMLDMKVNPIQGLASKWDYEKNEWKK
row,Variant,effect of a mutation on the interaction
1,K124R,with no effect

# Variants of: B5
# Conditions: with frih_human FTH1, P02794
row,Variant,effect of a mutation on the interaction
1,K124R,with no effect
